Test results from the supplement of paper PMC10126150.
± gives the standard deviation of the averaged measurements.
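Note: ATP exposure 15 min at 22 °C before imaging.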

These sequences were tested on ATP (assay: switch fluorescence ratio, 500 uM ATP over buffer (Cy3 cluster intensity, sum of 5 cycles each) (fold (ratio)); higher = stronger signal-on switching upon ATP binding; sequences stand for … in TCGTCGGCAGCGTCAGATGTGTATAAGAGACAGTTTTTTTTTTTTTTTTTTTTTTTTT…TC). Settings: aptamer strand: ATP DNA aptamer (quencher-CACCTGGGGGAGTATTGCGGAGGAAGG + anchor), 100 nM annealed; ATP concentration: 500 uM.
Summary of the method: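 The fluorescence ratio divides summed target-cycle Cy3 intensity by summed buffer-cycle Cy3 intensity for each cluster and is averaged per switch-domain sequence. Cy3-labelled switching-strand clusters on a modified Illumina MiSeq flow-cell were annealed to 100 nM quencher-labelled ATP aptamer, then imaged in selection buffer and again after 15 min with 500 uM ATP at 22 °C. Five such cycles were run, with NaOH stripping and re-annealing between them, and clusters outside 100-1000 RFU were excluded.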
ACTTAGCAGG was tested, and the switch fluorescence ratio was 1.08 ± 0.013. GAAAGTGTGT gave a switch fluorescence ratio of 1.004 ± 0.0092. Work on TTTGGGACGC yielded a switch fluorescence ratio of 1.05 ± 0.088. TGGGCGGTGC gave a switch fluorescence ratio of 1.93 ± 1.2. Work on TTTCAATCTG yielded a switch fluorescence ratio of 1.04 ± 0.038. CGGATGCATG showed a switch fluorescence ratio of 1.02 ± 0.046. GTTTAAAATC showed a switch fluorescence ratio of 0.99757 ± 0.00014. With TATGTTTT the switch fluorescence ratio was 1.02 ± 0.016. Sequence TTAGGGGATT has a switch fluorescence ratio of 1.01 ± 0.027. Sequence TATTGGGGAT has a switch fluorescence ratio of 1.06 ± 0.043. In the case of TATACGATCT, the switch fluorescence ratio is reported as 0.999 ± 0.03. Sequence TAAGATGTTT has a switch fluorescence ratio of 0.957 ± 0.034. With TCGGGGTTTT the switch fluorescence ratio was 1.02 ± 0.036. Work on GTTCTAGGGT yielded a switch fluorescence ratio of 0.9743 ± 0.0042. In the case of TGGGGAGATA, the switch fluorescence ratio is reported as 1.01 ± 0.018. GAGCGGGTAC gave a switch fluorescence ratio of 1.41 ± 0.03. For AATTTTTATT, the switch fluorescence ratio was 1.039 ± 0.0073. Sequence ATACTATTAT has a switch fluorescence ratio of 1.03 ± 0.013. ACTGCAAGGA gave a switch fluorescence ratio of 1.029 ± 0.0078. AGCATAGAGG was tested, and the switch fluorescence ratio was 1.03 ± 0.03. For CGAGGGGTCC, the switch fluorescence ratio was 0.975 ± 0.043. GGCTCACGGT showed a switch fluorescence ratio of 0.98015 ± 0.00082. In the case of TGGTTGGGCT, the switch fluorescence ratio is reported as 1.01 ± 0.026. For TGGGAATACG, the switch fluorescence ratio was 1.11 ± 0.048. With AGGCAACGGT the switch fluorescence ratio was 1.01 ± 0.012. TTGGGTTGGC showed a switch fluorescence ratio of 1.02 ± 0.043. Work on TTTCGTGTGA yielded a switch fluorescence ratio of 1.015 ± 0.0062. Work on TTTTAACTCT yielded a switch fluorescence ratio of 1.05 ± 0.015. In the case of GGGAATAAGC, the switch fluorescence ratio is reported as 0.978 ± 0.034. For GGAGGACTCG, the switch fluorescence ratio was 0.982 ± 0.05. CTCGTTGTGG gave a switch fluorescence ratio of 1.25 ± 0.37. Work on TGTTCAGGTG yielded a switch fluorescence ratio of 3.38 ± 0.15. Sequence TGTTCTAGG has a switch fluorescence ratio of 1.01 ± 0.015. CTAGGGGAGA gave a switch fluorescence ratio of 1.018 ± 0.0038. Sequence TGTTAGGCAA has a switch fluorescence ratio of 1.06 ± 0.034. CTTGGGGTGC gave a switch fluorescence ratio of 1.07 ± 0.094. Work on CTCAGAAACG yielded a switch fluorescence ratio of 1.03 ± 0.04. ATTTTGGGTG was tested, and the switch fluorescence ratio was 1.08 ± 0.049. Work on GAGTGGGGGA yielded a switch fluorescence ratio of 0.99 ± 0.023. In the case of TTACAGGGG, the switch fluorescence ratio is reported as 1.18 ± 0.027. For AGGGATGTTT, the switch fluorescence ratio was 0.999 ± 0.026. In the case of GAAATGATTC, the switch fluorescence ratio is reported as 1 ± 0.024. AGGCTAACGA was tested, and the switch fluorescence ratio was 1.015 ± 0.0049. GCTGATGGTG showed a switch fluorescence ratio of 0.989 ± 0.02. GACTGGAAGG gave a switch fluorescence ratio of 1.01 ± 0.011. AGCGCGGCGC was tested, and the switch fluorescence ratio was 1.01 ± 0.051. Sequence GTTTGGAGGA has a switch fluorescence ratio of 0.96 ± 0.024. For AAACTATAGA, the switch fluorescence ratio was 1.01 ± 0.054. Sequence AGCGGTGGTT has a switch fluorescence ratio of 1.02 ± 0.012. In the case of GCGAGGTCGG, the switch fluorescence ratio is reported as 1.03 ± 0.07. Work on GCAAAGTGGG yielded a switch fluorescence ratio of 0.9909 ± 0.0077. In the case of TTCGTACGAG, the switch fluorescence ratio is reported as 1 ± 0.026. ACAATTAAGC showed a switch fluorescence ratio of 1.04 ± 0.028. For CCGGAATCAT, the switch fluorescence ratio was 1.127 ± 0.00097. Work on AAGTTCAGTT yielded a switch fluorescence ratio of 1.01 ± 0.016. With AATGATCGGG the switch fluorescence ratio was 1.004 ± 0.0094. TAAGATATTA showed a switch fluorescence ratio of 0.998 ± 0.02. In the case of TGTGTGAGGG, the switch fluorescence ratio is reported as 1.036 ± 0.0086. With AAGGCGGGCT the switch fluorescence ratio was 0.98942 ± 7e-05. With AATGTCAGAG the switch fluorescence ratio was 0.986 ± 0.02. Sequence AATAATAAAC has a switch fluorescence ratio of 1.006 ± 0.0047. In the case of TACGAAATTG, the switch fluorescence ratio is reported as 1.06 ± 0.049. GACTTGAGTT showed a switch fluorescence ratio of 0.9971 ± 0.0091. In the case of AATTGCGGGA, the switch fluorescence ratio is reported as 0.9893 ± 0.0085. With ACGAACAGTT the switch fluorescence ratio was 1.15 ± 0.047. For AGGGCAGTGG, the switch fluorescence ratio was 0.9796 ± 0.0025. For TAGCCGCTTT, the switch fluorescence ratio was 1.065 ± 0.0087. With TTGGGGGATA the switch fluorescence ratio was 1.09 ± 0.24. For CGGTCATCTT, the switch fluorescence ratio was 0.9991 ± 0.0047. TAGTTGACTG was tested, and the switch fluorescence ratio was 1.04 ± 0.072. TTTCTCTACG was tested, and the switch fluorescence ratio was 1.015 ± 0.0056. With AAGTATGTAT the switch fluorescence ratio was 1.02 ± 0.041. Sequence AGTTTTTTAG has a switch fluorescence ratio of 0.98 ± 0.015. With AGCGCCAACA the switch fluorescence ratio was 1.02 ± 0.017. In the case of ATGTAAGATT, the switch fluorescence ratio is reported as 0.9891 ± 0.0047. TTTATAAATG was tested, and the switch fluorescence ratio was 1.014 ± 0.0017. For TAGCTGTCAC, the switch fluorescence ratio was 1.04 ± 0.04. In the case of TAAAAGGGCG, the switch fluorescence ratio is reported as 1.03 ± 0.012. GGTTGATTGG showed a switch fluorescence ratio of 0.973 ± 0.014. CTGGGGTGGA gave a switch fluorescence ratio of 1.01 ± 0.036. GTTACGGGGA was tested, and the switch fluorescence ratio was 1.02 ± 0.051. Work on AGGTGGTCGG yielded a switch fluorescence ratio of 0.966 ± 0.038. With TGTGGGGTAT the switch fluorescence ratio was 1.07 ± 0.045. TTGGATTGAC showed a switch fluorescence ratio of 1.06 ± 0.025. With TTTTCGGGTT the switch fluorescence ratio was 1 ± 0.04. CTGGGGGATA gave a switch fluorescence ratio of 1.02 ± 0.036. GTAGAGGGGG was tested, and the switch fluorescence ratio was 0.989 ± 0.014. GGTCTGGGAT gave a switch fluorescence ratio of 0.9939 ± 0.0096. Work on GTGGCGAGGG yielded a switch fluorescence ratio of 0.996 ± 0.0078. TCGGGAAGAG showed a switch fluorescence ratio of 0.98832 ± 5e-05. In the case of CTTTAATGTC, the switch fluorescence ratio is reported as 1 ± 0.025. Sequence ACGAAAGTCA has a switch fluorescence ratio of 1.052 ± 0.01. AGTTATGAGT showed a switch fluorescence ratio of 1.01 ± 0.054. In the case of GCCGGATTGC, the switch fluorescence ratio is reported as 1.07 ± 0.033. With TTACGTAGAT the switch fluorescence ratio was 1.12 ± 0.077. Sequence CGGCAGCGAG has a switch fluorescence ratio of 1.078 ± 0.0015. Sequence CTGGGGTCGG has a switch fluorescence ratio of 1 ± 0.052. Work on TCGTGTAGCT yielded a switch fluorescence ratio of 1 ± 0.03. Work on GATTGTCTTA yielded a switch fluorescence ratio of 0.979 ± 0.016. CGTCTGCGCG showed a switch fluorescence ratio of 0.972 ± 0.081. AGACATAGAG gave a switch fluorescence ratio of 1 ± 0.011. For TGGGTTTTTT, the switch fluorescence ratio was 1.01 ± 0.048. Work on TATAGCAGTT yielded a switch fluorescence ratio of 1.01 ± 0.013. Work on AGGCTTTTTT yielded a switch fluorescence ratio of 0.966 ± 0.065. GGGTGCTGCC gave a switch fluorescence ratio of 1 ± 0.037. Sequence AACTGTTGGG has a switch fluorescence ratio of 0.9928 ± 0.002. In the case of TTTGGCTACG, the switch fluorescence ratio is reported as 1.01 ± 0.011. Sequence TAGGGGAAAT has a switch fluorescence ratio of 0.994 ± 0.024. ACGAGTCTGC showed a switch fluorescence ratio of 0.96588 ± 0.00086. For AGTGTATAAA, the switch fluorescence ratio was 1.042 ± 0.0077. TAGGCCTGGG gave a switch fluorescence ratio of 1 ± 0.0033. Work on AGGGGAGTTC yielded a switch fluorescence ratio of 1.04 ± 0.035. TGCTTTAAAG showed a switch fluorescence ratio of 1 ± 0.037. In the case of TTGCTTACGG, the switch fluorescence ratio is reported as 1.02 ± 0.013. In the case of TTGATCACTT, the switch fluorescence ratio is reported as 1.001 ± 0.005. Sequence ACCGGCCCGG has a switch fluorescence ratio of 0.9848 ± 0.0085. In the case of GTGTGTTTGC, the switch fluorescence ratio is reported as 1.004 ± 0.0058. GGAGGCGTTC was tested, and the switch fluorescence ratio was 0.995 ± 0.013. AATTTTTTT was tested, and the switch fluorescence ratio was 0.992 ± 0.01. In the case of ATTAAATTCG, the switch fluorescence ratio is reported as 1 ± 0.017. TATTATGTCA gave a switch fluorescence ratio of 1.01 ± 0.043. TTGGTTTCCT showed a switch fluorescence ratio of 1.02 ± 0.038. TGTAGGACGG gave a switch fluorescence ratio of 1.09 ± 0.094. Sequence GGGAGCAAGG has a switch fluorescence ratio of 1.1 ± 0.018. With GAGGGAAGGG the switch fluorescence ratio was 0.994 ± 0.011. CCTTGTATTT was tested, and the switch fluorescence ratio was 1.01 ± 0.018. AAAAAGGGCG gave a switch fluorescence ratio of 0.989 ± 0.02. TTGGGGGGGC gave a switch fluorescence ratio of 0.997 ± 0.039. Sequence ATTTTGTTTT has a switch fluorescence ratio of 1.01 ± 0.061. In the case of TTAGTCCGTG, the switch fluorescence ratio is reported as 1.01 ± 0.036. For CCTGGCGCTT, the switch fluorescence ratio was 2.06 ± 0.86. CATAGTATGT showed a switch fluorescence ratio of 0.973 ± 0.067. With TGGTTTCAGG the switch fluorescence ratio was 1.01 ± 0.025. Work on CGCGTCGGGA yielded a switch fluorescence ratio of 0.976 ± 0.044. GTTGGAGGA was tested, and the switch fluorescence ratio was 1.04 ± 0.061. ACCTAACACG was tested, and the switch fluorescence ratio was 1.19 ± 0.037. Work on AAAGGGGGGT yielded a switch fluorescence ratio of 0.989 ± 0.025. In the case of TTATTGGAAA, the switch fluorescence ratio is reported as 1.012 ± 0.0059. With ATCCAGGGTA the switch fluorescence ratio was 1.01 ± 0.03. Work on TCAGGGAGTT yielded a switch fluorescence ratio of 0.969 ± 0.015. TTTAAGAAGT was tested, and the switch fluorescence ratio was 1 ± 0.027. GGTAGAGGTA gave a switch fluorescence ratio of 1.02 ± 0.013. For TATATGTGAT, the switch fluorescence ratio was 0.987 ± 0.017. Sequence GCGGTTGCTG has a switch fluorescence ratio of 0.954 ± 0.04. For ATGTCAGGAA, the switch fluorescence ratio was 1.02 ± 0.041. GTTTCGGGGA was tested, and the switch fluorescence ratio was 1 ± 0.038. For AAACCAGGTA, the switch fluorescence ratio was 1.18 ± 0.048. CTATATTTTT was tested, and the switch fluorescence ratio was 1.01 ± 0.025. GGCGGGGGAG was tested, and the switch fluorescence ratio was 1.03 ± 0.021. Sequence CGGGCAATCA has a switch fluorescence ratio of 1.58 ± 0.11. TTTTTCCCGA gave a switch fluorescence ratio of 1.018 ± 0.0038. Sequence GTGGCGGTG has a switch fluorescence ratio of 0.985 ± 0.014. CAATATAGGT showed a switch fluorescence ratio of 0.967 ± 0.018. Work on GGATATGGCA yielded a switch fluorescence ratio of 1.01 ± 0.037. For GAAGTTGTTG, the switch fluorescence ratio was 0.9642 ± 0.0036. In the case of GGGCGTTTCA, the switch fluorescence ratio is reported as 1.02 ± 0.02. Sequence GATGGAGGTT has a switch fluorescence ratio of 0.996 ± 0.055.
